Source: the RNAGym collection of RNA variant scans (doi:10.7554/elife.80360)

B1: HDV Ribozyme (parent)
chain: GGCCGGCAUGGUCCCAGCCUCCUCGCUGGCGCCGGCUGGGCAACAUUCCGAGGGGACCGUCCCCUCGGUAAUGGCGAAUGGGACCCA

Variants of: B1
Assay: self-cleavage, relative activity (ratio to wild type); higher = more cleavage; co-transcriptional

Point of comparison: GGCCGGCAUGGUCCCAGCCUCCUCGCCGGCGCCGGCUGGGCAACAUUCCGAGGGGGCCGUCCCCUCGGUAAUGGCGAAUGGGACCCA [U27C A56G], self-cleavage 0.575. Against it:
- GGCCGGCAUGGUCCCAGCCUCCUCGCAUGCGCCGGCUGGGCAACAUUCCGAGGGGACCGUCCCCUCGGUAAUGGCGAAUGGGACCCA [U27A G28U] — lower, 0.158
- GGCCGGCAUGGUCCCAGCCUCCUCGCAGGCGCCGGCUGGGCAACAUUCCGAGGGGACCGUCCCAUCGGUAAUGGCGAAUGGGACCCA [U27A C64A] — higher, 0.703
- GGCCGGCAUGGUCCCAGCCUCCUCGCAGGCGCCGGCUGGGCAACAUUCCGAGGGGACCGUCCCGUCGGUAAUGGCGAAUGGGACCCA [U27A C64G] — higher, 1.05
- GGCCGGCAUGGUCCCAGCCUCCUCGCAGGCGCCGGCUGGGCAACAUACCGAGGGGACCGUCCCCUCGGUAAUGGCGAAUGGGACCCA [U27A U47A] — higher, 0.7
- GGCCGGCAUGGUCCCAGCCUCCUCGCAGGCGCCGGCUGGGCAACAUCCCGAGGGGACCGUCCCCUCGGUAAUGGCGAAUGGGACCCA [U27A U47C] — lower, 0.391
- GGCCGGCAUGGUCCCAGCCUCCUCGCCGGCGCCGGCUGGGCAACAUUCCGAGGGGACGGUCCCCUCGGUAAUGGCGAAUGGGACCCA [U27C C58G] — higher, 0.7
- GGCCGGCAUGGUCCCAGCCUCCUCGCCGGCGCCUGCUGGGCAACAUUCCGAGGGGACCGUCCCCUCGGUAAUGGCGAAUGGGACCCA [U27C G34U] — lower, 0.185
- GGCCGGCAUGGUCCCAGCCUCCUCGCCGGCGCCCGCUGGGCAACAUUCCGAGGGGACCGUCCCCUCGGUAAUGGCGAAUGGGACCCA [U27C G34C] — lower, 0.106
- GGCCGGCAUGGUCCCAGCCUCCUCGCAGGCGCCGGCUGGGCAACAUUCCGAGGGAACCGUCCCCUCGGUAAUGGCGAAUGGGACCCA [U27A G55A] — higher, 1.08
- GGCCGGCAUGGUCCCAGCCUCCUCGCAGGCGCCGGCUGGGCAACAUUCCGAGGGGACCGUCGCCUCGGUAAUGGCGAAUGGGACCCA [U27A C62G] — higher, 0.929
- GGCCGGCAUGGUCCCAGCCUCCUCGCAGGCGCCGGCUGGGCAACAUUCCGAGGGGACCGUCACCUCGGUAAUGGCGAAUGGGACCCA [U27A C62A] — higher, 0.872
- GGCCGGCAUGGUCCCAGCCUCCUCGCAGGCGCCGGCUGGGCAACAUUCCGAGGGGACCGACCCCUCGGUAAUGGCGAAUGGGACCCA [U27A U60A] — higher, 0.918
- GGCCGGCAUGGUCCCAGCCUCCUCGCAGGCGCCGGCUGGGCAACAUUCCGAGGGGACCGUCCCCUCGGUAAUGGCGAAUGGGACCAA [U27A C86A] — higher, 0.733
- GGCCGGCAUGGUCCCAGCCUCCUCGCCGGCGCCGGCUGGGCAACAUUCCGAGGGGACCGUCCCCUCGGUAAUGGCGAAUGGGAGCCA [U27C C84G] — lower, 0.554
- GGCCGGCAUGGUCCCAGCCUCCUCGCCGGCGCCGGCUGGGCAAUAUUCCGAGGGGACCGUCCCCUCGGUAAUGGCGAAUGGGACCCA [U27C C44U] — lower, 0.19
- GGCCGGCAUGGUCCCAGCCUCCUCGCCGGCGCCGGGUGGGCAACAUUCCGAGGGGACCGUCCCCUCGGUAAUGGCGAAUGGGACCCA [U27C C36G] — lower, 0.185
- GGCCGGCAUGGUCCCAGCCUCCUCGCAGGCGCCGGCUGGGCAACAUUCCGAGGAGACCGUCCCCUCGGUAAUGGCGAAUGGGACCCA [U27A G54A] — higher, 0.961
- GGCCGGCAUGGUCCCAGCCUCCUCGCAGGCGCCGGCUGGGCAACAUUCCGAGGGGACCGUCCCCUCGGUAAUGACGAAUGGGACCCA [U27A G74A] — lower, 0.0437
- GGCCGGCAUGGUCCCAGCCUCCUCGCAGGCGCCGGCUGGGCAACAUUCCGAGGGGACCGUCCCCUCGGUAAUGUCGAAUGGGACCCA [U27A G74U] — lower, 0.427
- GGCCGGCAUGGUCCCAGCCUCCUCGCCGGCGCCGGCUGGGCCACAUUCCGAGGGGACCGUCCCCUCGGUAAUGGCGAAUGGGACCCA [U27C A42C] — lower, 0.431
- GGCCGGCAUGGUCCCAGCCUCCUCGCAGGCGCCGGCUGGGCAACAUUCCGAGGGGACCGUCCCCUCGGUAAUGGCAAAUGGGACCCA [U27A G76A] — higher, 0.997
- GGCCGGCAUGGUCCCAGCCUCCUCGCCCGCGCCGGCUGGGCAACAUUCCGAGGGGACCGUCCCCUCGGUAAUGGCGAAUGGGACCCA [U27C G28C] — lower, 0.123
- GGCCGGCAUGGUCCCAGCCUCCUCGCCGGCGCCGGCUGGGCAACAUUCCGAGGGGACCGUCCUCUCGGUAAUGGCGAAUGGGACCCA [U27C C63U] — higher, 0.73
- GGCCGGCAUGGUCCCAGCCUCCUCGCCGGCGCCGGCUGGGCAACAUUCCGAGGGGACCGUCCCCUCGGUAAUGGCGAAUGGGACCCU [U27C A87U] — higher, 0.6
- GGCCGGCAUGGUCCCAGCCUCCUCGCCGGCGCCGGCUGGGCAACAUUACGAGGGGACCGUCCCCUCGGUAAUGGCGAAUGGGACCCA [U27C C48A] — higher, 1.02
- GGCCGGCAUGGUCCCAGCCUCCUCGCCGGCGCCGGCUGGGCAACAUUUCGAGGGGACCGUCCCCUCGGUAAUGGCGAAUGGGACCCA [U27C C48U] — higher, 0.604
- GGCCGGCAUGGUCCCAGCCUCCUCGCAGGCGCCGGCUGGGCAACAUUCCGAGGGGACCGUCCCCUCGCUAAUGGCGAAUGGGACCCA [U27A G68C] — higher, 0.688
- GGCCGGCAUGGUCCCAGCCUCCUCGCAGGCGCCGGCUGGGCAACAUUCCGAGGGGACCGUCCCCUUGGUAAUGGCGAAUGGGACCCA [U27A C66U] — higher, 0.789
- GGCCGGCAUGGUCCCAGCCUCCUCGCCGGCGCCGGCUGGGCAACAUUCCGAGGGGACCGUCCCCUCGGUAAUGGCGAAUGGGACGCA [U27C C85G] — higher, 0.751
- GGCCGGCAUGGUCCCAGCCUCCUCGCAGGCGCCGGCUCGGCAACAUUCCGAGGGGACCGUCCCCUCGGUAAUGGCGAAUGGGACCCA [U27A G38C] — lower, 0.0665
- GGCCGGCAUGGUCCCAGCCUCCUCGCAGGCGCCGGCUGGGCAACAUUCCGAGGGGACCGUCCCCUCGGUAAUGGGGAAUGGGACCCA [U27A C75G] — lower, 0.095
- GGCCGGCAUGGUCCCAGCCUCCUCGCCGGCGCCGGCUGGGCAACAUUCCGAGGGGACCGUCCCCUUGGUAAUGGCGAAUGGGACCCA [U27C C66U] — lower, 0.534
- GGCCGGCAUGGUCCCAGCCUCCUCGCAGGCGCCGGCUGGGCAACAUUCCGAGGGGACCGUCCCCUCGGUAACGGCGAAUGGGACCCA [U27A U72C] — lower, 0.277
- GGCCGGCAUGGUCCCAGCCUCCUCGCAGGCGCCGGCUGGGCAACAUUCCGAGGGGACCGUCCCCUCAGUAAUGGCGAAUGGGACCCA [U27A G67A] — higher, 1.32
- GGCCGGCAUGGUCCCAGCCUCCUCGCAGGCGCCGGCUGGGCAACAUUCCGAGGGGACCGUCCCCUCCGUAAUGGCGAAUGGGACCCA [U27A G67C] — higher, 0.59
- GGCCGGCAUGGUCCCAGCCUCCUCGCAGACGCCGGCUGGGCAACAUUCCGAGGGGACCGUCCCCUCGGUAAUGGCGAAUGGGACCCA [U27A G29A] — lower, 0.135
- GGCCGGCAUGGUCCCAGCCUCCUCGCCGGCGCCGGCUGGGCAACAUUCCGAGGGGAACGUCCCCUCGGUAAUGGCGAAUGGGACCCA [U27C C57A] — higher, 0.692
- GGCCGGCAUGGUCCCAGCCUCCUCGCAGGCGCCGGCUGGGCAACAUUCCGAGGGGACCGUCCCCGCGGUAAUGGCGAAUGGGACCCA [U27A U65G] — higher, 1.12
- GGCCGGCAUGGUCCCAGCCUCCUCGCAGGCGCCGGCUGGGCAACAUUCCGAGGGGACCGUCCCCCCGGUAAUGGCGAAUGGGACCCA [U27A U65C] — higher, 0.957
- GGCCGGCAUGGUCCCAGCCUCCUCGCAGGCGCCAGCUGGGCAACAUUCCGAGGGGACCGUCCCCUCGGUAAUGGCGAAUGGGACCCA [U27A G34A] — lower, 0.256
- GGCCGGCAUGGUCCCAGCCUCCUCGCCGGCGCCGGCUGGGCAGCAUUCCGAGGGGACCGUCCCCUCGGUAAUGGCGAAUGGGACCCA [U27C A43G] — lower, 0.383
- GGCCGGCAUGGUCCCAGCCUCCUCGCCGGCGCCGGCUGGGCAUCAUUCCGAGGGGACCGUCCCCUCGGUAAUGGCGAAUGGGACCCA [U27C A43U] — lower, 0.237
- GGCCGGCAUGGUCCCAGCCUCCUCGCAGGCGCCGGCUGGGCAACAUUCCGAGGGGACCGUCCCCUCGGUAAUGGCGAAUGCGACCCA [U27A G81C] — lower, 0.356
- GGCCGGCAUGGUCCCAGCCUCCUCGCCGGCGCCGGCUGGGCAACAUUCCGAGGGGACCGUCCCCUCGGUAAUGGCGUAUGGGACCCA [U27C A77U] — lower, 0.262
- GGCCGGCAUGGUCCCAGCCUCCUCGCAGGCGCCGGCUGGGCAACAUUCCGAGGGGACCGUCCCCUCGGUAAUGGCGAAUAGGACCCA [U27A G80A] — lower, 0.499
- GGCCGGCAUGGUCCCAGCCUCCUCGCCGGCGCCGGCUGGGCAACAUUCCGAGGGGACCGUGCCCUCGGUAAUGGCGAAUGGGACCCA [U27C C61G] — higher, 0.795
- GGCCGGCAUGGUCCCAGCCUCCUCGCAGGCGCCGGCUGGGCAACAUUCCGAGGGGACCGUCCGCUCGGUAAUGGCGAAUGGGACCCA [U27A C63G] — higher, 0.764
- GGCCGGCAUGGUCCCAGCCUCCUCGCCGGCGCCGGCUGGGCAACAUUCCGAGGGGACCGUCACCUCGGUAAUGGCGAAUGGGACCCA [U27C C62A] — lower, 0.54
- GGCCGGCAUGGUCCCAGCCUCCUCGCAGGCGCCGGCUGGGCAACAUUCCGAGGGGACCGUCCCCUCGGUAAUGGCGAAUGGUACCCA [U27A G82U] — higher, 0.906
- GGCCGGCAUGGUCCCAGCCUCCUCGCCGGCGCCGGCUGGGCAACAUUCCGAGGGGACCGUCCCAUCGGUAAUGGCGAAUGGGACCCA [U27C C64A] — higher, 0.705
- GGCCGGCAUGGUCCCAGCCUCCUCGCCGGCGCCGGCUGGGCAACGUUCCGAGGGGACCGUCCCCUCGGUAAUGGCGAAUGGGACCCA [U27C A45G] — lower, 0.511
- GGCCGGCAUGGUCCCAGCCUCCUCGCCGGCGCCGGCUGGGCAACAUUCCGAGGGGACCGUCCCCUCGGUAAUGGAGAAUGGGACCCA [U27C C75A] — lower, 0.155
- GGCCGGCAUGGUCCCAGCCUCCUCGCAGGCGCCGGCUGGGCAACAUUCCGAUGGGACCGUCCCCUCGGUAAUGGCGAAUGGGACCCA [U27A G52U] — higher, 0.846
- GGCCGGCAUGGUCCCAGCCUCCUCGCAGGCGCCGGCUGGGCAACAUUCCGAGCGGACCGUCCCCUCGGUAAUGGCGAAUGGGACCCA [U27A G53C] — higher, 0.831
- GGCCGGCAUGGUCCCAGCCUCCUCGCAGGCGCCGGCUGGGCAACAAUCCGAGGGGACCGUCCCCUCGGUAAUGGCGAAUGGGACCCA [U27A U46A] — higher, 0.831
- GGCCGGCAUGGUCCCAGCCUCCUCGCCGACGCCGGCUGGGCAACAUUCCGAGGGGACCGUCCCCUCGGUAAUGGCGAAUGGGACCCA [U27C G29A] — lower, 0.125
- GGCCGGCAUGGUCCCAGCCUCCUCGCCGCCGCCGGCUGGGCAACAUUCCGAGGGGACCGUCCCCUCGGUAAUGGCGAAUGGGACCCA [U27C G29C] — lower, 0.107
- GGCCGGCAUGGUCCCAGCCUCCUCGCAGGCGCCGGCUGGGCAACAUUCCGAGGGGACCUUCCCCUCGGUAAUGGCGAAUGGGACCCA [U27A G59U] — higher, 0.95
- GGCCGGCAUGGUCCCAGCCUCCUCGCAGGCGCCGGCUGGGCAACAUUCCGAGGGGACCCUCCCCUCGGUAAUGGCGAAUGGGACCCA [U27A G59C] — higher, 0.939
- GGCCGGCAUGGUCCCAGCCUCCUCGCAGGCGCCGGCUGGGCAACAUUCCGAGGGGACCGUCCCCUCGGUAAUGGCGAAUGGGACGCA [U27A C85G] — higher, 0.793
- GGCCGGCAUGGUCCCAGCCUCCUCGCCGGCGCCGGCUGGGCAACAUUCCGAGGGGUCCGUCCCCUCGGUAAUGGCGAAUGGGACCCA [U27C A56U] — higher, 0.674
- GGCCGGCAUGGUCCCAGCCUCCUCGCCGGCGCCGGCUGGGCAACAUUCCGAGGGGCCCGUCCCCUCGGUAAUGGCGAAUGGGACCCA [U27C A56C] — higher, 0.612
- GGCCGGCAUGGUCCCAGCCUCCUCGCAGGCGCCGGCUGGGCAACAUUCCGAGGGGACCGUCCCCUCGGUAAUAGCGAAUGGGACCCA [U27A G73A] — lower, 0.391
